From the supplement of paper PMC9112550, “Optimization of the antimicrobial peptide Bac7 by deep mutational scanning” (BMC Biology, 2022)

Tested on: Escherichia coli TOP10
Test: shrunken log2 fold change of peptide-encoding DNA abundance (4.5 h post-induction vs induction); higher = less antimicrobial activity (less host growth inhibition)
Details: time post-induction: 4.5 h; library: site-saturation at positions 5, 18, 19, 20
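Note: peptides expressed intracellularly from a pBAD plasmid library in pooled LB shake-flask culture, induced with 0.3% L-arabinose, DNA abundance read by NGS, three biological replicates, DESeq2 with apeglm shrinkage.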

Sequence	shrunken log2 fold change
RRIRFRPPRLPRPRPRPYSFPRP	-0.967
RRIRERPPRLPRPRPRPGKKPRP	-0.0022
RRIRMRPPRLPRPRPRPHTEPRP	0.191
RRIRLRPPRLPRPRPRPAWLPRP	0.229
RRIRERPPRLPRPRPRPYRNPRP	-0.166
RRIRVRPPRLPRPRPRPYSFPRP	-0.594
RRIRNRPPRLPRPRPRPTVAPRP	0.351
RRIRWRPPRLPRPRPRPNYQPRP	-0.365
RRIRCRPPRLPRPRPRPKVEPRP	0.345
RRIRRRPPRLPRPRPRPYCQPRP	-0.664
RRIRERPPRLPRPRPRPNVKPRP	-0.195
RRIRWRPPRLPRPRPRPDYQPRP	-0.101
RRIRHRPPRLPRPRPRPDCMPRP	-0.291
RRIRVRPPRLPRPRPRPVPGPRP	0.0985
RRIRNRPPRLPRPRPRPFTAPRP	0.613
RRIRERPPRLPRPRPRPRAFPRP	0.189
RRIRNRPPRLPRPRPRPLFAPRP	0.0932
RRIRHRPPRLPRPRPRPLGGPRP	-0.0164
RRIRHRPPRLPRPRPRPWYDPRP	0.0351
RRIRDRPPRLPRPRPRPVGEPRP	0.55
RRIRARPPRLPRPRPRPNTQPRP	-0.0663
RRIRERPPRLPRPRPRPVPHPRP	-0.0329
RRIRNRPPRLPRPRPRPCPDPRP	-0.0721
RRIRHRPPRLPRPRPRPQENPRP	-0.245
RRIRHRPPRLPRPRPRPTNMPRP	1.96

Sequence	shrunken log2 fold change
RRIRLRPPRLPRPRPRPNDCPRP	0.0412
RRIRARPPRLPRPRPRPGVRPRP	0.797
RRIRNRPPRLPRPRPRPMQCPRP	0.0637
RRIRCRPPRLPRPRPRPMWCPRP	0.148
RRIRHRPPRLPRPRPRPLCKPRP	0.0111
RRIRWRPPRLPRPRPRPHNVPRP	-0.178
RRIRRRPPRLPRPRPRPAEMPRP	0.219
RRIRGRPPRLPRPRPRPCHDPRP	0.458
RRIRERPPRLPRPRPRPYEMPRP	-1.05
RRIRKRPPRLPRPRPRPDHRPRP	0.139
RRIRLRPPRLPRPRPRPHCVPRP	-0.068
RRIRPRPPRLPRPRPRPGNSPRP	0.0886
RRIRCRPPRLPRPRPRPNHNPRP	-0.975
RRIRTRPPRLPRPRPRPAHGPRP	0.00693
RRIRNRPPRLPRPRPRPLMLPRP	-0.842
RRIRTRPPRLPRPRPRPTTSPRP	0.0942
RRIRYRPPRLPRPRPRPPTHPRP	-0.251
RRIRMRPPRLPRPRPRPTDKPRP	0.851
RRIRKRPPRLPRPRPRPRQEPRP	0.461
RRIRARPPRLPRPRPRPGYFPRP	0.212
RRIRARPPRLPRPRPRPNWWPRP	0.802
RRIRTRPPRLPRPRPRPWIIPRP	-0.228
RRIRSRPPRLPRPRPRPARNPRP	0.611
RRIRERPPRLPRPRPRPYPWPRP	-0.706
RRIRYRPPRLPRPRPRPEAPPRP	-0.0405

Sequence	shrunken log2 fold change
RRIRNRPPRLPRPRPRPQEIPRP	-0.00783
RRIRPRPPRLPRPRPRPWKTPRP	-0.225
RRIRLRPPRLPRPRPRPCWEPRP	-0.197
RRIRERPPRLPRPRPRPPPYPRP	-0.231
RRIRRRPPRLPRPRPRPRCSPRP	0.152
RRIRNRPPRLPRPRPRPWVGPRP	-0.065
RRIRNRPPRLPRPRPRPPYGPRP	-0.0471
RRIRGRPPRLPRPRPRPWEAPRP	-0.0319
RRIRCRPPRLPRPRPRPSVAPRP	-0.276
RRIRHRPPRLPRPRPRPLDSPRP	-0.448
RRIRARPPRLPRPRPRPPMSPRP	0.414
RRIRCRPPRLPRPRPRPEVMPRP	-0.0567
RRIRVRPPRLPRPRPRPMHEPRP	-0.044
RRIRFRPPRLPRPRPRPFDPPRP	-0.135
RRIRCRPPRLPRPRPRPRSIPRP	-0.0603
RRIRFRPPRLPRPRPRPYIRPRP	-0.755
RRIRMRPPRLPRPRPRPYPGPRP	0.0814
RRIRFRPPRLPRPRPRPMYWPRP	0.146
RRIRFRPPRLPRPRPRPPMIPRP	-0.224
RRIRERPPRLPRPRPRPYEDPRP	-0.0116
RRIRKRPPRLPRPRPRPGRTPRP	0.223
RRIRWRPPRLPRPRPRPVVRPRP	0.405
RRIRCRPPRLPRPRPRPNWFPRP	-0.201
RRIRFRPPRLPRPRPRPIDNPRP	2.36
RRIRFRPPRLPRPRPRPTKKPRP	-0.0226

Sequence	shrunken log2 fold change
RRIRVRPPRLPRPRPRPRRTPRP	0.115
RRIRPRPPRLPRPRPRPWDYPRP	-0.19
RRIRFRPPRLPRPRPRPLGDPRP	0.4
RRIRKRPPRLPRPRPRPYPHPRP	-0.207
RRIRYRPPRLPRPRPRPMERPRP	0.0776
RRIRVRPPRLPRPRPRPPYTPRP	-0.268
RRIRWRPPRLPRPRPRPQDVPRP	-0.0384
RRIRTRPPRLPRPRPRPEVTPRP	-0.00738
RRIRYRPPRLPRPRPRPHHGPRP	0.0431
RRIRHRPPRLPRPRPRPCYDPRP	-0.00778
RRIRTRPPRLPRPRPRPHTYPRP	-0.296
RRIRMRPPRLPRPRPRPHEFPRP	0.224
RRIRNRPPRLPRPRPRPTPCPRP	0.043
RRIRYRPPRLPRPRPRPGLSPRP	-0.439
RRIRVRPPRLPRPRPRPNMRPRP	-0.124
RRIRERPPRLPRPRPRPFVHPRP	-0.435
RRIRVRPPRLPRPRPRPMFHPRP	-0.22
RRIRFRPPRLPRPRPRPENYPRP	0.0219
RRIRCRPPRLPRPRPRPCICPRP	-0.105
RRIRDRPPRLPRPRPRPVHGPRP	1.43
RRIRWRPPRLPRPRPRPYWCPRP	-0.704
RRIRYRPPRLPRPRPRPVHWPRP	0.0233
RRIRVRPPRLPRPRPRPTRQPRP	0.0865
RRIRVRPPRLPRPRPRPHQDPRP	-0.264
RRIRIRPPRLPRPRPRPIVCPRP	0.000993

Sequence	shrunken log2 fold change
RRIRARPPRLPRPRPRPRGIPRP	0.488
RRIRKRPPRLPRPRPRPIGRPRP	0.015
RRIRARPPRLPRPRPRPGMSPRP	0.649
RRIRTRPPRLPRPRPRPHMNPRP	-0.547
RRIRRRPPRLPRPRPRPKDTPRP	0.0485
RRIRQRPPRLPRPRPRPEMQPRP	0.0355
RRIRARPPRLPRPRPRPMFYPRP	-0.282
RRIRGRPPRLPRPRPRPLWSPRP	0.117
RRIRNRPPRLPRPRPRPPYRPRP	-0.11
RRIRWRPPRLPRPRPRPSYMPRP	-0.502
RRIRQRPPRLPRPRPRPQELPRP	0.157
RRIRMRPPRLPRPRPRPNQRPRP	0.332
RRIRARPPRLPRPRPRPNLGPRP	0.0306
RRIRGRPPRLPRPRPRPNTLPRP	-0.145
RRIRRRPPRLPRPRPRPKIHPRP	0.02
RRIRMRPPRLPRPRPRPQRKPRP	0.605
RRIRPRPPRLPRPRPRPYLPPRP	-0.431
RRIRQRPPRLPRPRPRPTAAPRP	0.933
RRIRARPPRLPRPRPRPEKTPRP	0.38
RRIRFRPPRLPRPRPRPYANPRP	-1.28
RRIRARPPRLPRPRPRPWLKPRP	-0.0421
RRIRPRPPRLPRPRPRPFCCPRP	0.0801
RRIRGRPPRLPRPRPRPTDAPRP	1.14
RRIRGRPPRLPRPRPRPSVTPRP	0.708
RRIRKRPPRLPRPRPRPESHPRP	-0.00766
